Assay results: patent publication US8541367B2, “Plasma anti-diabetic NUCB2 peptide (pladin) and uses thereof” (Landing Biotech, Inc., priority 2009, dated 2013)
Where “and” joins values, the source holds several entries; their conditions need not be identical. Equal entries are not always repeated. Entries after “also recorded” stand apart in the source; their conditions may differ.

Legend:
db/db mice [1] = assay: Serum nesfatin-1 / pladin in db/db after i.v. plasmin inhibitor (HPLC); format: in vivo, mouse; settings: for circulating (serum) nesfatin-1: 30 minutes after i.v. injection
Experimental: Hypothalamus in acetic acid supplemented with protease inhibitor cocktail tablets (Roche, Indianapolis, Ind.) was homogenized, sonicated and heated at 95° C. for 15 minutes. The samples were then centrifuged at 13,200 rpm at 4° C. for 30 minutes. The supernatants were finally collected as their protein contents were determined by the Bradford assay (Thermo-Fisher Sci. Rockford, Ill.). Mouse serum was freshly prepared by drawing blood through ophthalmectomy. About […] hypothalamic total proteins or 25 μL serum were analyzed with Waters Delta 600E/2487/717 HPLC system using an analytical C18 reverse phase column (4.6×250 mm/5 μm, Hambon, Zhangjiagang, CN). Nesfatin-1 was eluted with a linear gradient from 20%-40% solvent B (solvent A: water with 0.1% trifluoroacetic acid, solvent B: acetonitrile with 0.1% trifluoroacetic acid) for 20 minutes at the flow rate of 1 ml/minute. The purified nesfatin-1 was used as the standard to determine the retention time and plot the standard curve. The fraction collected at the retention time was sent for the mass spectrometry analysis.
Mouse serum was freshly prepared by drawing blood through ophthalmectomy. The sera of plg^−/−lepr^−/− and db/db mice were directly analyzed with Waters Delta 600E/2487/717 HPLC System using a C18 reverse phase column (4.6×250 mm, 5 μm, Hambon, Zhangjiagang, CN) and eluted with a linear gradient from 20%-40% acetonitrile in 0.1% TFA for 20 minutes at the flow rate of 1 ml/minute (Enriori et al., 2007). Compared with db/db mice, the divergent fractions eluted in plg^−/−lepr^−/− mice were collected for the determination of molecular weight using the Applied Biosystems 4800 Proteomics Analyzer (Applied Biosystems). The MS spectra were acquired in the liner mode at a range of peptide mass from 3,000 to 20,000 Dalton.

post-surgical patients = assay: AMCA treatment of post-surgical hyperglycemia in patients; format: in vivo, human; settings: 10 mg/kg i.v. BID, four post-surgical patients, blood glucose before 10-12 mmol/L
db/db mice [2] = assay: Blood glucose of db/db mice after injection of test substance; format: in vivo, mouse; settings: for active duration of anti-hyperglycemic effect in vivo: i.v. injection, hyperglycemic db/db mice; for anti-hyperglycemic effect (blood glucose): peripheral/i.v. injection, dose not stated
db/db mice [3] = assay: Food intake and body weight of db/db mice; format: in vivo, mouse
db/db mice [4] = assay: Blood glucose of db/db mice after injection of test substance; format: in vivo, mouse; settings: for effect of pre-treatment on the anti-diabetic effect of nesfatin-1: GW9662 0.45 μg/g i.v. or Compound C 20 mg/kg i.p. before 100 ug Nesfatin-1 i.v., blood glucose in 6 hours; for effect of pre-injection on the anti-hyperglycemic effect of rPladin: GW9662 0.45 ug/g i.v., rosiglitazone or Compound C 20 ug/g i.p., then 10 nmol rPladin i.v., 3 hours
Experimental: GW9662, a PPAR-gamma irreversible inhibitor, was i.v. injected into the tail vein of db/db mice at the dose of 0.45 μg per gram body weight. After 30 minutes, 100 ug Nesfatin-1 was injected into the tail vein of db/db mice. Blood glucose was measured in 6 hours.
Compound C, a 5′-AMP-activated protein kinase (AMPK) specific inhibitor, was intraperitoneally injected to db/db mice at the dose of 20 mg per kg body weight. Subsequently, 100 ug Nesfatin-1 was injected into the tail vein of db/db mice. Blood glucose was measured in 6 hours.
(§1) Without anesthesia, mice were placed into a restricting tube. The testing substance such as nesfatin-1 or rPladin was i.v. injected via mice tail vein with a total volume of 150 μL. After that mice were returned to the cages with food and water available freely. In the i.p. injection experiment, mice without anesthesia were injected with the testing substances directly into the peritoneal with a total volume of 200 μL.
db/db mice of 16 to 18 weeks old were i.v. injected with 0.45 ug/g of GW9662 (Sigma, St. Louis, Mo.), i.p. injected with 20 ug/g rosiglitazone (Sigma, St. Louis, Mo.) or 20 ug/g Compound C (Sigma, St. Louis, Mo.), and then randomly assigned to receive the i.v. injection of 10 nmol rPladin or the same volume of saline as the control. Blood glucose was measured at 3 hours after the injection using the glucose meter (Roche, Indianapolis, Ind.).

[5] = test system: Streptozotocin-induced type-1 diabetic C57BL/6J mice; assay: Streptozotocin-induced type-1 diabetic mice, blood glucose; format: in vivo, mouse
Experimental: Male C57BL/6J mice (10 weeks) were given intraperitoneal injections of Streptozotocin (STZ) in sodium citrate (pH 4.5) on two consecutive days (100 mg/kg/day). Blood glucose was measured by tail vein sampling using the glucose oxidase enzymatic test. Diabetes was defined as a morning blood glucose reading of >16 mM after STZ. When blood glucose levels exceeded 30 mM, diabetic mice were given 16 ng of porcine insulin (Wangbang, Xuzhou, CN) immediately to prevent the blood glucose being dangerous every second day to prevent weight loss while maintaining blood glucose levels within the hyperglycemic range (16-30 mM). Nesfatin-1 (100 μg/mouse) was i.v. injected either alone or combined with s.c. insulin (2 ng/mouse) to STZ-induced type-I diabetic mice.
Male C57BL/6J mice (10 weeks) were intraperitoneally injected with 100 μg/g/day STZ in 100 mmol/L sodium citrate (pH 4.5) on two consecutive days. Blood glucose was measured by tail vein sampling using the glucose oxidase enzymatic test. When the fasting blood glucose reading was over 16 mmol/L after the STZ injection, the mice were considered to be type-1 diabetic. […]

[6] = Clearance and half-life of i.v. peptide in circulation; format: in vivo, mouse; settings: for clearance from circulation in plg−/− versus wild-type (plg+/+) mice: i.v. injection
wild-type mice = assay: Intravenous glucose tolerance test (IV-GTT / IGTT) in wild-type mice; format: in vivo, mouse; settings: i.v. glucose 1.5 g/kg
Experimental: In the intravenous (i.v.) glucose tolerance test (IV-GTT), mice injected intravenously with 1 mg or 1.5 mg glucose per gram of body weight and placed in clean cages. Blood glucose was measured immediately before and at 5, 10, 20, 30, 60 and 120 minutes after the injection of glucose.

rat = assay: 0-3 h food intake of rat after i.p. and i.c.v. injection; format: in vivo; settings: for food intake: 0-3 h
lean wild-type mice = assay: Blood glucose of lean wild-type mice after i.v. injection; format: in vivo, mouse; settings: 10 nmol i.v.
Experimental: as §1

plasmin = plasmin (Homo sapiens, UniProt P00747); assay: Incubation with plasmin in vitro (proteolysis); format: biochemical; settings: for proteolysis by plasmin: incubated with plasmin in vitro
Text: The recovery of hypothalamic nesfatin-1 in plg^−/−lepr^−/− was consistent to its normalization in food intake and body weight. Fasted mice always had less nesfatin-1 in hypothalamus than their freely feeding counterparties (FIG. 2b). Furthermore, plasminogen deficiency provided a unique approach to study the chronic effect of elevated nesfatin-1 in hyperphagic obese animals, which was impossible for the i.c.v. or i.p. administration due to the short half-time of nesfatin-1. Consequently, agrp and npy were found reduced in plg^−/−lepr^−/−, while pomc was elevated compared with plg^+/+lepr^−/− (FIG. 3), contradicting to the previous report that i.c.v. nesfatin-1 didn't alter the expression of pomc, npy and agrp. Consistent to the present finding, the same group reported the up-regulation of pomc by i.p. nesfatin-1 in NTS recently.
Carefully examining the amino acid sequence of pladin (SEQ ID NO: 23), it has several putative cleavage sites by plasmin (FIG. 11A).

mice including db/db = assay: Blood insulin in mice after rPladin; format: in vivo, mouse
ob/ob mice = assay: Blood lipid analysis in ob/ob mice after i.v. injection; format: in vivo, mouse; settings: 100 ug i.v., 3 hours after injection
Experimental: One hundred ug Nesfatin-1 was injected into the tail vein of ob/ob mice. Blood samples were taken 3 hours after the injection for lipid analysis.

[7] = i.c.v. or i.p. injection; cited from earlier work
[8] = in circulation, Pan et al., 2007, Price et al.; cited from earlier work
rats = settings: cited from earlier work
[9] = blood-to-brain and brain-to-blood, nonsaturable system; cited from earlier work
[10] = i.v. plasmin inhibitor to db/db (AMCA 15 mg/day once daily for three days)
[11] = i.c.v. injection (25 pmol), db/db

Chain of plasmin (P00747 581-810 limits assumed, species assumed): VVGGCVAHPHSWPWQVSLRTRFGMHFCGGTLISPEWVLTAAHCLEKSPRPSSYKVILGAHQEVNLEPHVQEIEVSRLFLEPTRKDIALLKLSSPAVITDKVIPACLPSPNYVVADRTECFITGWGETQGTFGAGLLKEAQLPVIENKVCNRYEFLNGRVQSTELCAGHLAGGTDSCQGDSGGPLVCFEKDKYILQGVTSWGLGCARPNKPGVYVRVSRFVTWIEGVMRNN
Chain of plasmin (P00747 97-580 partner limits assumed, species assumed): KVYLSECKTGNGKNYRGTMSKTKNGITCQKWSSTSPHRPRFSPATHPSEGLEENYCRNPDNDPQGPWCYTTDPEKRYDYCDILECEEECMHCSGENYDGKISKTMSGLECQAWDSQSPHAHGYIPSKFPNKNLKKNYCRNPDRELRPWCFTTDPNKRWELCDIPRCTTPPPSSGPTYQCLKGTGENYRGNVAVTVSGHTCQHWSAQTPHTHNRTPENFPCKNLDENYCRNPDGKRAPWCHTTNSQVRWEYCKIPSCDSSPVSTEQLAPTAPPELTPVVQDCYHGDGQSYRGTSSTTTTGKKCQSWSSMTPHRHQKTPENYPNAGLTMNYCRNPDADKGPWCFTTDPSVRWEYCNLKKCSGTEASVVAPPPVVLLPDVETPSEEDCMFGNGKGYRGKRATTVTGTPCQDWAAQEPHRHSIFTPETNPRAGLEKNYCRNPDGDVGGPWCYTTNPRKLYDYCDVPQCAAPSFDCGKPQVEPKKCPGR

Q: Which results are given for `NC[C@H]1CC[C@H](C(=O)O)CC1` [AMCA, tranexamic acid]?
A: serum pladin (db/db mice [1]; 10 minutes after i.v. 15 mg): increased; circulating (serum) nesfatin-1 (db/db mice [1]): increased; blood glucose after treatment (post-surgical patients): 6.8 to 9.2 mmol/L; fasting blood glucose (db/db mice [2]; once-daily administration for 10 weeks since 2 weeks old, db/db): reduced significantly; body weight (db/db mice [3]; [10]): reduction; food intake (db/db mice [3]; [10]): reduction

Q: With `c1cc(-c2cnn3cc(-c4ccc(OCCN5CCCCC5)cc4)cnc23)ccn1` [Compound C] as the molecule, how does the “effect of pre-treatment on the anti-diabetic effect of nesfatin-1” value (db/db mice [4]) read?
A: fully inhibited

Q: What about the “effect of pre-injection on the anti-hyperglycemic effect of rPladin” value (db/db mice [4]) of the same molecule?
A: abolished; also recorded: prevented

Q: With `O=C(Nc1ccccc1)c1cc([N+](=O)[O-])ccc1Cl` [GW9662] as the molecule, how does the “effect of pre-treatment on the anti-diabetic effect of nesfatin-1” value (db/db mice [4]) read?
A: fully inhibited

Q: What about the “effect of pre-injection on the anti-hyperglycemic effect of rPladin” value (db/db mice [4]) of the same molecule?
A: abolished; also recorded: prevented

Q: Which results are given for aprotinin?
A: circulating (serum) nesfatin-1 (db/db mice [1]): increased; body weight (db/db mice [3]; [10]): reduction; food intake (db/db mice [3]; [10]): reduction

B1: TKVHNTEPVENARIEPPDTGLYYDEYLKQVIEVLETDPHFREK LQKADIEEIRSGRLSQELDLVSHKVR (protein)
chain: TKVHNTEPVENARIEPPDTGLYYDEYLKQVIEVLETDPHFREKLQKADIEEIRSGRLSQELDLVSHKVR
modifications: amino acids by MALDI-TOF/TOF with Trypsic Peptides
Q: What does the source list for B1?
A: blood glucose ([5]; 10 nmol per mouse i.v. alone or with s.c. insulin 2 ng/mouse): lowered by rPladin only when insulin was also subcutaneously injected; half-life in circulation ([6]; data not shown): less than 10 minutes; clearance from circulation in plg−/− versus wild-type (plg+/+) mice [6]: cleared much slower in plg^−/− than wild-type mice; uptake of blood sugar (wild-type mice; 10 nmol): significantly enhanced the uptake of blood sugar; food intake (rat; 25 pmol i.c.v. per rat): significantly inhibited food intake; food intake (rat; 30 nmol i.p. per rat): significantly inhibited food intake; inhibition of food intake relative to nesfatin-1 (rat; i.v., i.p. and i.c.v. administration): As potent as nesfatin-1; also recorded: same extent of inhibition in food intake as nesfatin-1; blood glucose (db/db mice [2]; 10 nmol i.v., freely fed db/db): significantly reduced blood glucose; blood glucose (db/db mice [2]; [11]): had no effect on the high levels of blood glucose; also recorded: could not affect blood glucose and insulin; active duration of anti-hyperglycemic effect in vivo (db/db mice [2]): 6 h and > 6 h; anti-hyperglycemic effect (blood glucose) (db/db mice [2]; db/db): significantly reduced blood glucose; anti-hyperglycemic effect after incubation with plasmin (db/db mice [2]; plasmin digested rPladin, db/db (FIG. 11C)): lost; blood glucose (lean wild-type mice): but not in lean wild-type; food intake (db/db mice [3]; 25 pmol i.c.v., db/db mice): significantly inhibited food intake; proteolysis by plasmin (plasmin): rapidly degraded; also recorded: completely digested by plasmin; insulin (mice including db/db; i.c.v. injection, db/db mice): could not affect blood glucose and insulin; blood insulin (mice including db/db; i.v. administration, mice including db/db): did not significantly affect

B2: nesfatin-1: 82 amino-acid fragment of nucb2 (mouse, SEQ ID NO: 18), recombinant, produced in E. coli (protein)
peptide: VPIDVDKTKVHNTEPVENARIEPPDTGLYYDEYLKQVIEVLETDPHFREKLQKADIEEIRSGRLSQELDLVSHKVRTRLDEL
Q: For B2, which blood glucose ([5]; 100 μg/mouse i.v. alone or with s.c. insulin 2 ng/mouse) is on record?
A: decreased only when nesfatin-1 was injected with s.c. insulin

Q: And the “clearance from circulation in plg−/− versus wild-type (plg+/+) mice” value [6]?
A: cleared much slower in plg^−/− than plg^+/+ mice

Q: What about the “uptake of blood sugar” value (wild-type mice; 100 μg) of the same molecule?
A: significantly enhanced the uptake of blood sugar

Q: And the blood glucose (db/db mice [2]; 10 nmol i.v., freely fed db/db)?
A: reduced blood glucose

Q: What about the blood glucose (db/db mice [2]; 100 μg i.v., freely fed db/db) of the same molecule?
A: significantly reduced blood glucose

Q: What about the blood glucose (db/db mice [2]; [11]) of the same molecule?
A: had no effect on the high levels of blood glucose; also recorded: little diabetic improvement

Q: And the “active duration of anti-hyperglycemic effect in vivo” value (db/db mice [2])?
A: > 6 h

Q: What about the “anti-hyperglycemic effect (blood glucose)” value (db/db mice [2]; db/db) of the same molecule?
A: significantly reduced blood glucose

Q: And the food intake (db/db mice [3]; 25 pmol i.c.v., db/db mice)?
A: significantly inhibited food intake

Q: What about the HDL in blood (ob/ob mice) of the same molecule?
A: unaffected

Q: And the LDL in blood (ob/ob mice)?
A: significantly reduced

Q: What about the “total cholesterol in blood” value (ob/ob mice) of the same molecule?
A: significantly reduced

Q: And the triglyceride in blood (ob/ob mice)?
A: significantly reduced

Q: What about the “time to complete digestion by plasmin” value (plasmin; in vitro, FIG. 1b) of the same molecule?
A: ≤ 2 h

Q: And the proteolysis by plasmin (plasmin)?
A: rapidly degraded

Q: What about the “food intake and body weight” value [7] of the same molecule?
A: inhibits food intake and thereby reduces body weight

Q: And the “half-life of nesfatin-1” value [8]?
A: 9 to 10 min and 10 min

Q: What about the neuropsychological effect (rats) of the same molecule?
A: increasing anxiety and fear-related behaviors

Q: And the “crossing of the blood-brain barrier” value [9]?
A: crosses the Blood Brain Barrier
